Source: publication PMC5823465 (PLoS Neglected Tropical Diseases, 2018)

Columns and labels:
Assay in all cases: ELISA; competition ELISA, KD in solution at equilibrium: serial dilutions of EDIII mixed with antibody at 0.2 nM, incubated overnight; unbound or singly bound antibody measured on Maxisorp plates coated with EDIII-DV1, detected with HRP rabbit anti-human IgG; mass action model adjusted for antibody bivalence
[1] = target: VIS513
[2] = target: EDIII domain of the E protein, DENV1 HAW, wild type (Dengue virus type 1, strain Hawaii 1944 …, UniProt A0A097PIH4, strain); details: both partners purified
[3] = target: T1, EDIII domain of the E protein, DENV2 NGC, wild type (Dengue virus type 2, strain NGC …, UniProt A0A097PIE2, strain); details: both partners purified
T1 construct: also called DENV2 NGC WT; DV2-NGC

[4] = target: EDIII domain of the E protein, DENV3 H87, wild type (Dengue virus type 3, strain H87 …, UniProt A0A0U2UQM7, strain); details: both partners purified

In the case of “EDIII domain of the E protein, DENV1 HAW, K310R (domain or fragment)”, the Kd [1] is reported as 0.39 nM.

Work on “EDIII domain of the E protein, DENV3 H87, L301S (domain or fragment)” yielded a Kd [1] of 1.7 nM.

Work on “EDIII domain of the E protein, DENV4 BC287, K310R (domain or fragment)” yielded a Kd [1] of 618 nM.

In the case of “EDIII domain of the E protein, DENV2 NGC, K310R (domain or fragment)”, the Kd [1] is reported as 0.79 nM.

Work on “EDIII domain of the E protein, DENV3 H87, K308R (domain or fragment)” yielded a Kd [1] of 170 nM.

B1: VIS513 (antibody, V domains shown)
VH: QVQLVQSGAEVKKPGASVKVSCKAGFNIKDVYMSWVRQAPEQGLEWMGRIDPENGDTKYDPKLQGRVTMTADTSTNTAYMELRSLRSDDTAVYYCARGWEGFAYWGQGTLVTVSS
VL: DIVMTQSPASLAVSLGQRATISCRASENVDKYGNSFMHWYQQKPGQPPKLLIYRASELQWGVPDRFSGSGSGTDFTLTISSLQAEDVAVYYCQRSNEVPWTFGQGTKLEIK
B1 was tested, and the Kd [2] was less than 0.1 nM, the Kd [3] was less than 0.1 nM and the Kd [4] was 1.5 nM.
